Source: paper PMC10876309, “Two Main Cancer Biomarkers as Molecular Targets of Binase Antitumor Activity” (BioMed Research International, 2024)

Target: the molecule itself
Assay: SDS-PAGE and western blot; binase in the immunoprecipitated samples, blotted with anti-binase antibodies; bands of 12 kDa and 25 kDa

B1: binase, ribonuclease from Bacillus pumilus (enzyme, UniProt P00649 54-162, looked up)
chain: AVINTFDGVADYLIRYKRLPDNYITKSQASALGWVASKGNLAEVAPGKSIGGDVFSNREGRLPSASGRTWREADINYVSGFRNADRLVYSSDWLIYKTTDHYATFTRIR
notes: binase, ribonuclease of Bacillus pumilus, 12.3 kDa, pI 9.5; also called bacterial ribonuclease binase; cytotoxic ribonuclease from Bacillus pumilus; source: purified as described earlier [21, 22]
  binding result: binds
